# Test results reported in ChEMBL document CHEMBL4382202, “1-(2-Hydroxybenzoyl)-thiosemicarbazides are promising antimicrobial agents targeting d-alanine-d-alanine ligase in bacterio” (Eur J Med Chem, 2018).
# B1: D-alanine--D-alanine ligase (Enterococcus faecalis (strain ATCC 700802 / V583)), Q47758 (protein)
# chain: MKIILLYGGRSEEHDVSVLSAYSVLNAIYYKYYQVQLVFISKDGQWVKGPLLSERPQNKEVLHLTWAQTPEETGEFSGKRISPSEIYEEEAIVFPVLHGPNGEDGTIQGFMETINMPYVGAGVLASANAMDKIMTKYLLQTVGIPQVPFVPVLRSDWKGNPKEVFEKCEGSLIYPVFVKPANMGSSVGISKVENREELQEALEEAFRYDARAIVEQGIEAREIEVAILGNEDVRTTLPGEVVKDVAFYDYDAKYINNTIEMQIPAHVPEEVAHQAQEYAKKAYIMLDGSGLSRCDFFLTSKNELFLNELNTMPGFTDFSMYPLLWENMGLKYSDLIEELIQLALNRFK
# Experiments:
# [1] = compound: O=C(NNC(=S)Nc1ccc(Cl)c(Cl)c1)c1ccccc1O; assay: Inhibition of Enterococcus faecalis JH2-2 C-terminal 6His-tagged DdlB expressed in Escherichia coli LMG194 assessed as Vmax of ATP at 10 uM by Biomol Green reagent assay (reference value: 89.05 +/- 5.41 microM/min)
# [2] = compound: O=C(NNC(=S)Nc1ccc(Cl)c(Cl)c1)c1ccccc1O; assay: Inhibition of Enterococcus faecalis JH2-2 C-terminal 6His-tagged DdlB expressed in Escherichia coli LMG194 assessed as Km of D-Ala at 10 uM by Biomol Green reagent assay (reference value: 5.62 mM)
# [3] = compound: O=C(NNC(=S)Nc1ccc(Cl)c(Cl)c1)c1ccccc1O; assay: Inhibition of Enterococcus faecalis JH2-2 C-terminal 6His-tagged DdlB expressed in Escherichia coli LMG194 assessed as Km of D-Ala at 1 uM by Biomol Green reagent assay (reference value: 5.62 mM)
# [4] = compound: O=C(NNC(=S)Nc1ccc(Cl)c(Cl)c1)c1ccccc1O; assay: Inhibition of Enterococcus faecalis JH2-2 C-terminal 6His-tagged DdlB expressed in Escherichia coli LMG194 assessed as Vmax of D-Ala at 1 uM by Biomol Green reagent assay (reference value: 61.95 +/- 1.11 microM/min)
# [5] = compound: O=C(NNC(=S)Nc1ccc(Cl)c(Cl)c1)c1ccccc1O; assay: Inhibition of Enterococcus faecalis JH2-2 C-terminal 6His-tagged DdlB expressed in Escherichia coli LMG194 assessed as Km1 of D-Ala using 500 uM ATP by Biomol Green reagent assay
# [6] = compound: O=C(NNC(=S)Nc1ccc(Cl)c(Cl)c1)c1ccccc1O; assay: Inhibition of Enterococcus faecalis JH2-2 C-terminal 6His-tagged DdlB expressed in Escherichia coli LMG194 assessed as Vmax of ATP at 1 uM by Biomol Green reagent assay (reference value: 89.05 +/- 5.41 microM/min)
# [7] = compound: O=C(NNC(=S)Nc1ccc(Cl)c(Cl)c1)c1ccccc1O; assay: Inhibition of Enterococcus faecalis JH2-2 C-terminal 6His-tagged DdlB expressed in Escherichia coli LMG194 assessed as Km2 of D-Ala using 500 uM ATP by Biomol Green reagent assay
# [8] = compound: O=C(NNC(=S)Nc1ccc(Cl)c(Cl)c1)c1ccccc1O; assay: Inhibition of Enterococcus faecalis JH2-2 C-terminal 6His-tagged DdlB expressed in Escherichia coli LMG194 assessed as Vmax of D-Ala at 10 uM by Biomol Green reagent assay (reference value: 61.95 +/- 1.11 microM/min)
# [9] = compound: O=C(NNC(=S)Nc1ccc(Cl)c(Cl)c1)c1ccccc1O; assay: Inhibition of Enterococcus faecalis JH2-2 C-terminal 6His-tagged DdlB expressed in Escherichia coli LMG194 assessed as Km of ATP using 50 mM D-Ala substrate by Biomol Green reagent assay
protein,measurement,setting,value
B1,Vmax,[1],23.5 µM/min
same,Km,[2],9.63 mM
same,Km,[3],7.01 mM
same,Vmax,[4],48.6 µM/min
same,Km,[5],0.487 mM
same,Vmax,[6],72.1 µM/min
same,Km,[7],10.5 mM
same,Vmax,[8],45.1 µM/min
same,Km,[9],0.691 mM
